Reference: patent US20030100501A1, “Q4N2NEG2 enhances CFTR activity” (Case Western Reserve University, priority 2001, published 2003)
Square brackets hold non-standard residues; d marks the D form. Ends that are not written are not given here. Nle = CCCC[C@H](N)C(=O)O

Experiments:
wt-CFTR channel = target: T1, wt-CFTR channel (Homo sapiens, UniProt P13569); assay: Single channel recording of CFTR channels reconstituted in planar lipid bilayer, peptide added to cis (intracellular) side; format: biochemical
T1 construct: expressed in transfected cells; host or cells: 293-EBNA HEK cells (Invitrogen) transfected with pCEP4(wt); microsomal membrane vesicles
Source text: The activating peptide of Q4N2NEG2 was created by substituting glutamine residues for glutamic acid residues at four sites and asparagines for aspartic acid residues at two sites of the authentic NEG2 peptide sequence […] (SEQ ID NO: 7). In addition, a serine residue was substituted for cysteine, to prevent peptide dimerization, and norleucine was substituted for methionine, to prevent oxidation. These changes create a peptide with reduced chemical reactivity and high predicted helical structure, confirmed by circular dichroism, as well as reduced net negative charge (from −9 to −3). […] At concentrations of 4-6 μM Po of CFTR doubles.
To test whether the Q4N2NEG2 polypeptide is responsible for increasing the open probability of the CFTR channel, synthetic Q4N2NEG2, a 22 amino acid peptide, was added to the cis-intracellular side of single CFTR channels captured in the planar lipid bilayer (FIG. 1). […] During stimulation, the open probability doubles and more transitions are observed between the open and closed states (FIG. 1B). The open probability observed in 5 experiments at 4 μM concentration Q4N2NEG2 is shown to be increased by about two-fold in the graph (FIG. 1C).
The wt CFTR cDNA was subcloned into an Epstein-Barr virus-based episomal eukaryotic expression vector, pCEP4 (Invitrogen, San Diego, Calif.), between the Nhe1 and Xho1 restriction sites.
A human embryonic kidney cell line (293-EBNA HEK; Invitrogen) was used for transfection and expression of the CFTR proteins (Ma et al., 1997, Ma et al., 1996, Xie et al., 1995). The HEK-293 cell line contains a pCMV-EBNA vector, which constitutively expresses the Epstein-Barr virus nuclear antigen-1 (EBNA-1) gene product and increases the transfection efficiency of Epstein-Barr virus-based vectors. The cells were maintained in Dulbecco's Modified Eagle Medium with 10% FBS and 1% L-glutamine. Geneticin (G418, 250 (g/ml) was added to the cell culture medium to maintain selection of the cells containing the pCMV-EBNA vector. Lipofectamine reagent (Life Technologies, Inc) in Optimem media (serum-free) was used to transfect the HEK-293 cells with pCEP4(wt). After 5 hours, serum was added to the media (10% final serum concentration). Twenty-four hours after transfection, the transfection media was replaced with fresh media. The cells were harvested two days after transfection and microsomal membrane vesicles were prepared for single channel measurements in the lipid bilayer reconstitution system.
HEK-293 cells transfected with pCEP4(CFTR) were harvested and homogenized using a combination of hypotonic lysis and Dounce homogenization in the presence of protease inhibitors (Ma et al., 1997, Ma et al., 1996, Xie et al., 1995). […]
Lipid bilayer membranes were formed across an aperture of ˜200 (m diameter with a mixture of phosphatidylethanolamine:phosphatidylserine:cholesterol in a ratio of 5:5:1. The lipids were dissolved in decane at a concentration of 33 mg/ml. The recording solutions contained: cis (intracellular), 200 mM CsCl, 1 mM MgCl2, 2 mM ATP, and 10 mM HEPES-Tris (pH 7.4); trans (extracellular), 50 mM CsCl, 10 mM HEPES-Tris (pH 7.4). Vesicles (1-4 (1) containing wild-type CFTR were added to the cis solution. The PKA catalytic subunit was present at a concentration of 50 units/ml in the cis solution unless noted otherwise. Single channel currents were recorded with an Axopatch 200A patch clamp unit (Axon Instruments). […]

mutant G551D CFTR = target: T2, mutant G551D CFTR (Homo sapiens, UniProt P13569, G551D); assay: Planar lipid bilayer open probability of mutant CFTR; format: biochemical
T2 construct: expressed in transfected cells; host or cells: 293-EBNA HEK cells (inferred: the methods describe this line for 'the CFTR proteins')
Source text: The Q4 N2 NEG2 peptide sequence has been tested on one mutant form of CFTR, G551D, which reaches the plasma membrane. In the planar lipid bilayer, Q4N2NEG2 increased the open probability of G551 by about threefold. Thus, this peptide is useful to stimulate channel activity in mutant forms of CFTR that reach the plasma membrane.
Lipid bilayer membranes were formed across an aperture of ˜200 (m diameter with a mixture of phosphatidylethanolamine:phosphatidylserine:cholesterol in a ratio of 5:5:1. The lipids were dissolved in decane at a concentration of 33 mg/ml. The recording solutions contained: cis (intracellular), 200 mM CsCl, 1 mM MgCl2, 2 mM ATP, and 10 mM HEPES-Tris (pH 7.4); trans (extracellular), 50 mM CsCl, 10 mM HEPES-Tris (pH 7.4). Vesicles (1-4 (1) containing wild-type CFTR were added to the cis solution. The PKA catalytic subunit was present at a concentration of 50 units/ml in the cis solution unless noted otherwise. Single channel currents were recorded with an Axopatch 200A patch clamp unit (Axon Instruments). The currents were sampled at 1-2.5 ms/point. Single channel data analyses were performed with pClamp and TIPS softwares.

T1 sequence (P13569 whole entry): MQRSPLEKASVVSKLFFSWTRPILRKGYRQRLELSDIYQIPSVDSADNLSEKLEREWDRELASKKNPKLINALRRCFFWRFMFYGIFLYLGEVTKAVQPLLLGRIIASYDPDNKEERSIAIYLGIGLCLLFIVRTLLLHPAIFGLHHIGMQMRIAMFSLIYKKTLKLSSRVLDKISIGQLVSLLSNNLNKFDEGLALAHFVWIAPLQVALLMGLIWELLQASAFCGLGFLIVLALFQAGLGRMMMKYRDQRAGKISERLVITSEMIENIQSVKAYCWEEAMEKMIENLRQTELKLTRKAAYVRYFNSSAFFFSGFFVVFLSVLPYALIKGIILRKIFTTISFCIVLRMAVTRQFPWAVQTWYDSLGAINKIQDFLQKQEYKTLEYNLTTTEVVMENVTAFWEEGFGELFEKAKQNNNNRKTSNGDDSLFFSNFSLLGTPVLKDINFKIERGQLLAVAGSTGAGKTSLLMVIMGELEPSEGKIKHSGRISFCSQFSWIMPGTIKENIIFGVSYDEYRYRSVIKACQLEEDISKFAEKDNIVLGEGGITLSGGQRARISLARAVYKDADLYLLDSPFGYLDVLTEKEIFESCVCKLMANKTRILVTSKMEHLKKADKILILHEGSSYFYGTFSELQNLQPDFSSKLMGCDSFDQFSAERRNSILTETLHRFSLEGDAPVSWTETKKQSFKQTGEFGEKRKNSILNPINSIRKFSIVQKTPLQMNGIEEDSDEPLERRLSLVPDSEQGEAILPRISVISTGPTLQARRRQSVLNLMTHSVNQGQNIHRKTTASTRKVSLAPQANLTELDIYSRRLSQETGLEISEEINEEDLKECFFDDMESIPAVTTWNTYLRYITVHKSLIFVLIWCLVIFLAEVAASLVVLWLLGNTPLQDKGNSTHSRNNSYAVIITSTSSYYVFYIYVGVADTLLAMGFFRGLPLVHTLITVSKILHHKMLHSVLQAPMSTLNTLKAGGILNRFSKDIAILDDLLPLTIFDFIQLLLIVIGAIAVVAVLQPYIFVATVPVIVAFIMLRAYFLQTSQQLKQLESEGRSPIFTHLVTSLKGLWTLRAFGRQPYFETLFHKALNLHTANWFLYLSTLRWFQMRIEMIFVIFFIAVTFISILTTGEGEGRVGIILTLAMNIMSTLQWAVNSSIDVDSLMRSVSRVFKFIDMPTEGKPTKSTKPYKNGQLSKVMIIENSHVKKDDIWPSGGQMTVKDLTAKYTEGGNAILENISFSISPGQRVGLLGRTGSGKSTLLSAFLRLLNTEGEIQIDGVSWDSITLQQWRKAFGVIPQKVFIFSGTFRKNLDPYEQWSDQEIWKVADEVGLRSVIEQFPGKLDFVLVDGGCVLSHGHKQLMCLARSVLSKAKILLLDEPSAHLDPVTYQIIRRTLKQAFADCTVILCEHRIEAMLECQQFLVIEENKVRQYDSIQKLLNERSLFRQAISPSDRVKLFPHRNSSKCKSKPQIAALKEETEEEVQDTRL
T2 sequence (P13569 whole entry G551D): as the sequence (P13569 whole entry) above, with G551D counted along it

GLEISEQINQQNLKQSFFNDLE (Ac-GLEISEQINQQNLKQSFFND[Nle]E; not fully specified (C-terminus)) [Q4N2NEG2, synthetic 22 amino acid peptide derived from NEG2 with four Glu to Gln, two Asp to Asn, Cys to Ser, Met to norleucine substitutions]
increase in open probability (Po) of CFTR channel (wt-CFTR channel; 4 μM peptide, summary of 5 experiments (FIG. 1C)): about two-fold
inhibitory activity on CFTR channel (wt-CFTR channel; any experiment at any concentration of peptide): No inhibitory activity
stimulation of channel activity (wt-CFTR channel; concentration ranging 0.5 to 14 μM, cis side): marked dose-related stimulation
Po of CFTR (wt-CFTR channel; peptide concentrations of 4-6 μM, cis side): doubles
open probability during stimulation, single wt-CFTR channel (wt-CFTR channel; single channel trace, FIG. 1A/1B, 4 μM): doubles
increase in open probability of G551D CFTR (mutant G551D CFTR): about threefold
